In patent publication US20050154189A1 (MAXYGEN, published 2005):

Target: T1, Soluble CTLA-4-Ig (human, UniProt P16410 36-161, FITC-conjugated in the two-colour FACS assays; unlabelled and detected with FITC goat anti-human IgG in the concentration-dependent assay)
T1 construct: extracellular domain; Bought from R&D Systems; also called sCTLA-4-Ig; CTLA-4-Ig Fc; not shown: Fc portion of human IgG1
Experiment: two-colour FACS profile on transfected cells; score of preference for CTLA-4-Ig over CD28-Ig vs WT hB7-1

T1 sequence (P16410 36-161): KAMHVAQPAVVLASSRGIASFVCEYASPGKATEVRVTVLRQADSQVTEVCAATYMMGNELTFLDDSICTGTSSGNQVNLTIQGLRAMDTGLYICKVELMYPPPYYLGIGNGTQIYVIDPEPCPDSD

B1: Round 1 CTLA4BP-5 (ligand)
chain: VIHVTKEVKEVATLSCGHNVSVEELAQTRIHWQKEKKMVLTMMSGDMNIWPEYKNRTIFDITNNLSIVILALRPSDEGTYECVVLKYEKDAFKREHLAEVTLSVKADFPTPSISDFEIPPSNIRRIICSTSGGFPEPHLSWLENGEELNAINTTVSQDPGTELYTVSSKLDFNMTTNHSFMCLIKYGHLRVNQTFNWNTPKQEHFPDNLLPSWAITLISVNGIFVICCLTYCFAPRCRERRRNERLRRESVRPV
notes: also called R1-5; R1 CTLA-4BP-5
Q: With B1 as the binder, how does the “Binding Score” value read?
A: 2

B2: Round 2 CTLA4BP 2x1-h12 (ligand)
chain: VIHVTKEVKEVATLSCGLNVSVEELAQTRIHWQKEKKMVLTMMSGDMNIWPEYKNRTIFDITNNLSIVILALRPSDEGTYECVVLKYEKDAFKREHLAEVMLSVKADFPTPSITDFEIPPSNIRRIICSTSGGFPEPHLSWLENGEELNAINTTVSQDPGTELYTVSSKLDFNMTTNHSFMCLIKYGHLRVNQTFNWNTPKQEHFPDNLLPSWAITLISANGIFVICCLTYCFAPRCRERKSNERLRRESVCPV
Q: Which “Binding Score” value does the source give for B2 here?
A: 1

B3: Round 2 CTLA4BP 2x1-g8 (ligand)
chain: VIHVTKEVKEVATLSCGHNVSVEELAQTRIHWQKEKKMVLTMMSGDMNIWPEYKNRTIFDITNNLSVVILALRPSDEGTYECVVLKYEKDAFKREHLAEVTLSVKADFPTPSITDFEIPPSNIRRIICSTSGGFPEPHLSWLENGEELNAINTTVSQDPGTELYTVSSKLDFNMTTNRSFVCLIKYGHLRVNQTFNWNTPKQEHFPDNLLPSWAITLISVNGIFVICCLTYCFAPRCRERKSNERLRRESVRPV
Q: For B3, which “Binding Score” value is on record?
A: 1

B4: Round 1 CTLA4BP-27 (ligand)
chain: VIHVTKEVKEVATLSCGLNVSVEELAQTRIYWQKEKKMVLTMMSGDMNIWPEYKNRTIFDITNNLSIVILALRPSDEGTYECVVLKYEKDAFKREHLAEVMLSVKADFPTPSISDFEIPPSNIRRIICSTSGGFPEPHLSWLENGEELNAINTTVSQDPETELYTVSSKLDFNMTANHSFVCLIKYGHLRVNQTFNWNTPKQEHFPDNLLPSWAITLISVNGIFVICCLTYCFAPRCRERRRNETLRRESVRPV
notes: also called R1-27; R1 CTLA-4BP-27
Q: Which “Binding Score” value does the source give for B4 here?
A: 1

B5: Round 1 CTLA4BP-11 (ligand)
chain: VIHMTKEVKEVATLSCGHNVSVEELAQTRIYWQKEKKMVLTMMSGDMNIWPEYKNRTIFDITNNLSIVILALRPSDEGTYECVVLKYEKDAFKREHLAEVMLSVKADFPTPSITDFEIPPSNIRRIICSTSGGFPEPHLFWLENGEELNAINTTVSQDPETELYAVSSKLDFNMTTNHSFMCLIKYGHLRVNQTFNWNTTKQEHFPDNLLPSWAITLISVNGIFVICCLTHCFAPRCRERRRNERLRRESVHPV
notes: also called R1-11; R1 CTLA-4BP-11
Q: With B5 as the binder, how does the “Binding Score” value read?
A: 1

B6: Round 2 CTLA4BP 2x1-c4 (ligand)
chain: VIHVTKEVKEVATLPCGHNVSVEELAQTRIHWQKEKKMVLTMMSGDMNIWPEYKNRTIFDITNNLSIVILALRPSDEGTYECVVLKYEKDAFKREHLAEVMLSVKADFPTPSITDFEIPPSNIRRIICSTSGGFPEPHLFWLENGEELNAINTTVSQDPGTELYAVSSKLDFNMTTNHNFMCLIKYGHLRVNQTFNWNTPKQEHFPDNLLPSWAITLISVNGIFVICCLTYCFAPRCRERRRNERLRRESVRPV
Q: Which “Binding Score” value does the source give for B6 here?
A: 1

B7: Round 2 CTLA4BP 2x1-b12 (ligand)
chain: VIHMTKEVKEVATLSCGHNVSVEELAQTRIYWQKEKKMVLTMMSGDMNIWPEYKNRTIFDITNNLSIVILALRPSDEGTYECVALKYEKDAFKQEHLAEVTLSVKADFPTPSISDFEIPPSNIRRIICSTSGGFPEPRLAWMEDGEELNAINTTVSQDPETELYTVSSKLDFNMTANHSFMCLIKYGHLRVNQTFNWNTPKQEHFPDNLLPSWAITLISVNGIFVICCLTYCFAPRCRERRRNERLRRESVCPV
Q: B7 was tested. Which “Binding Score” value did it give?
A: 1

B8: Round 2 CTLA4BP 2x2-f12 (ligand)
chain: VIHVTKEVKEVATLSCGHNVSVEELAQTRIHWQKEKKMVLTMMSGDMNIWPEYKNRTIFDITNNLSIVILALRPSDEGTYGCVVLEYEKDAFKREHLAEVMLSVKADFPTPSISDFEIPPSNIRRIICSTSGGFPEPHLSWLENGEELNAINTTVSQDPETELYAVSSKLDFNMTTNHSFMCLIKYGHLRANQTFNWNTPKQEHFPDNLLPSWAITLISVNGIFVICCLTYCFAPRCRERRRNERLRRESVRPV
Q: How did the “Binding Score” value turn out when B8 was run?
A: 1

B9: Round 2 CTLA4BP 2x2-f1 (ligand)
chain: VIHVTKEVKEVATLSCGHNVSVEELAQTRIHWQKEKKMVLTMMSGDMNIWPEYKNRTIFDITNNLSIVILALRLSDEGTYECVVLKYEKDAFKREHLAEVTLSVKADFPTPSISDFEIPTSNIRRIICSTSGGFPEPHLFWLENGEELNAINTTASQDPETELYTVSSKLDFNMTTNRSFVCLIKYGHLRVNQTFNWNTPKQEHFPDNLLPSWAITLISVNGIFVICCLTYCFAPRCRERRRNERLRRESVRPV
Q: B9 was tested. Which “Binding Score” value did it give?
A: 1

B10: Round 1 CTLA4BP-13 (ligand)
chain: VIHVTKEVKEVATLSCGHNVSVEELAQTRIYWQKEKKMVLTMMSGDMNIWPEYKNRTIFDITNNLSIVILALRPSDEGTYECVVLKYEKDAFKREHLAEVTLSVKADFPTPSISDFEIPTSNIRRIICSTSGGFPEPHLFGLENGEEINAINTTASQDPETELYTVSSKLDFNMTPNRSFVCLIKYGHLRVNQTFNWNTPKQEHFPDNLLPSWAITLISANGIFVICCLTYCFAPRCRERKSNERLRRESVRPV
notes: also called R1-13; R1 CTLA-4BP-13
Q: Which “Binding Score” value does the source give for B10 here?
A: 1

B11: Round 2 CTLA4BP 2x1-f10 (ligand)
chain: VIHVTKEVKEVATLSCGHNVSVEELAQTRIHWQKEKKMVLTMMSGDMNIWPEYKNRTIFDITNNLSIVILALRPSDEGTYECVVLKYEKDAFKREHLAEVMLSVKADFPTPSITDFEIPPSNIRRIICSTSGGFPEPRLAWMEDGEELNAINTTVSQDPGTELYAVSSKLDFNMTTNHSFMCLIKYGHLRVNQTFNWNTPKQEHFPDNLLPSWAITLISVNGISVICCLTYCFAPRCRERRRNERLRRESVCPV
Q: With B11 as the binder, how does the “Binding Score” value read?
A: 1

B12: Round 2 CTLA4 A-B11-5 (ligand)
chain: ITPKSATKRVKETVMLSCDYSTSTEELTSLRIYWQKDSKMVLAILPGKVQVWPEYKNRTITDMNDNPRIVILALRLSDSGTYTCVIQKPDLKGAYKLEHLTSVRLMIRADFPVPTINDLGNPSPNIRRLICSTSGGFPRPHLYWLENGEELNATNTTLSQDPETKLYMISSELDFNMTSNHSFLCLVKYGDLTVSQTFYWQESKPTPSANQHLTWTIIIPVSAFGISVIIAVILTCLTCRNAAIRRQRRENEVEMQSCSQSP
Q: B12 was tested. Which “Binding Score” value did it give?
A: 1

B13: Round 2 CTLA4 A-G8-1 (ligand)
chain: ITPKSVTKRVKETVMLSCDYNTSTEELTSLRIYWQKDSKMVLAILPGKVQVWPEYKNRTITDMNDNPRIVILALPLSDSGTYTCVIQKPDLKGAYKLEHLTSVRLMIRADFPVPTINDLGNPSPNIRRLICSTSGGFPRPHLYWLENGEELNATNTTLSQDPETKLYMISSELDFNMTSNHSFLCLVKYGDLTVSQTFYWQESKPTPSANQHLTWTIIIPVSAFGISVIIAVILTCLTCRNAAIRRQRRENEVEMQSCSQSP
Q: B13 was tested. Which “Binding Score” value did it give?
A: 1

B14: Round 2 CTLA4 A-F6-9 (ligand)
chain: ITPKSVTKRVKETVMLSCDYSTSTEELTSLRIYWQKDSKMVLAILPGKVQVWPEYKNRTITDMNDNPRIVILALRLSDSGTYTCVIQKPDLKGAYKLEHLTSVRLMIRADFPVPTINDLGNPSPNIRRLICSTSGGFPRPHLYWLENGEELNATNTTLSQDPETKLYMISSELDFNMTSNHSFLCLVKYGDLTVSQTFYWQESKPTPSANQHLTWTIIIPVSAFGISVIIAVILTCLTCRNAAIRRQRRENEVEMQSCSQSP
Q: B14 was tested. Which “Binding Score” value did it give?
A: 1
